T1: human recombinant LAP β1 (R&D), not treated with protease
T1 chain: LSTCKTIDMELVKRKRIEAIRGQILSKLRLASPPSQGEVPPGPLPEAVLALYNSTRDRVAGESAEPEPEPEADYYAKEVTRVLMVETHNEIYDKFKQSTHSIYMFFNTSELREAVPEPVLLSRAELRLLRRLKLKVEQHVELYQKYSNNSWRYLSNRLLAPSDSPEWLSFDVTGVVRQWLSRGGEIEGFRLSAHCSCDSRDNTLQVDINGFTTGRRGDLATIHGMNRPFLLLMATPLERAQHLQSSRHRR


Biological target: T1, human recombinant LAP β1 (R&D), not …

Protein | limited degradation on longer incubation; cleavage sites by N-terminal sequencing | limited degradation; cleavage site by N-terminal sequencing of the fragments | degradation of LAP β1 (SDS-PAGE, silver staining)
human blood-derived plasmin (PLN) (Sigma) (protein) KVYLSECKTGNGKNYRGTMSKTKNGITCQKWSSTSPHRPRFSPATHPSEGLEENYCRNPDNDPQGPWCYTTDPEKRYDYCDILECEEECMHCSGENYDGKISKTMSGLECQAWDSQSPHAHGYIPSKFPNKNLKKNYCRNPDRELRPWCFTTDPNKRWELCDIPRCTTPPPSSGPTYQCLKGTGENYRGNVAVTVSGHTCQHWSAQTPHTHNRTPENFPCKNLDENYCRNPDGKRAPWCHTTNSQVRWEYCKIPSCDSSPVSTEQLAPTAPPELTPVVQDCYHGDGQSYRGTSSTTTTGKKCQSWSSMTPHRHQKTPENYPNAGLTMNYCRNPDADKGPWCFTTDPSVRWEYCNLKKCSGTEASVVAPPPVVLLPDVETPSEEDCMFGNGKGYRGKRATTVTGTPCQDWAAQEPHRHSIFTPETNPRAGLEKNYCRNPDGDVGGPWCYTTNPRKLYDYCDVPQCAAPSFDCGKPQVEPKKCPGRVVGGCVAHPHSWPWQVSLRTRFGMHFCGGTLISPEWVLTAAHCLEKSPRPSSYKVILGAHQEVNLEPHVQEIEVSRLFLEPTRKDIALLKLSSPAVITDKVIPACLPSPNYVVADRTECFITGWGETQGTFGAGLLKEAQLPVIENKVCNRYEFLNGRVQSTELCAGHLAGGTDSCQGDSGGPLVCFEKDKYILQGVTSWGLGCARPNKPGVYVRVSRFVTWIEGVMRNN | plasmin successively cleaved between 85 Arg and 86 Asp, and between 106 Lys and 107 Glu | plasmin specifically cleaves between 56 Lys and 57 Leu of latent TGF-β | –
human matrix metalloprotease 2 (MMP2) (Alexis), APMA-activated (protein) YNFFPRKPKWDKNQITYRIIGYTPDLDPETVDDAFARAFQVWSDVTPLRFSRIHDGEADIMINFGRWEHGDGYPFDGKDGLLAHAFAPGTGVGGDSHFDDDELWTLGEGQVVRVKYGNADGEYCKFPFLFNGKEYNSCTDTGRSDGFLWCSTTYNFEKDGKYGFCPHEALFTMGGNAEGQPCKFPFRFQGTSYDSCTTEGRTDGYRWCGTTEDYDRDKKYGFCPETAMSTVGGNSEGAPCVFPFTFLGNKYESCTSAGRSDGKMWCATTANYDDDRKWGFCPDQGYSLFLVAAHEFGHAMGLEHSQDPGALMAPIYTYTKNFRLSQDDIKGIQELYGASPDIDLGTGPTPTLGPVTPEICKQDIVFDGIAQIRGEIFFFKDRFIWRTVTPRDKPMGPLLVATFWPELPEKIDAVYEAPQEEKAVFFAGNEYWIYSASTLERGYPKPLTSLGLPPDVQRVDAAFNWSKNKKTYIFAGDKFWRYNEVKKKMDPGFPKLIADAWNAIPDNLDAVVDLQGGGHSYFFKGAYYLKLENQSLKSVKFGSIKSDWLGC | – | – | degradation of LAP could not be confirmed
human matrix metalloprotease 9 (MMP9) (Alexis), APMA-activated (protein) MRTPRCGVPDLGRFQTFEGDLKWHHHNITYWIQNYSEDLPRAVIDDAFARAFALWSAVTPLTFTRVYSRDADIVIQFGVAEHGDGYPFDGKDGLLAHAFPPGPGIQGDAHFDDDELWSLGKGVVVPTRFGNADGAACHFPFIFEGRSYSACTTDGRSDGLPWCSTTANYDTDDRFGFCPSERLYTQDGNADGKPCQFPFIFQGQSYSACTTDGRSDGYRWCATTANYDRDKLFGFCPTRADSTVMGGNSAGELCVFPFTFLGKEYSTCTSEGRGDGRLWCATTSNFDSDKKWGFCPDQGYSLFLVAAHEFGHALGLDHSSVPEALMYPMYRFTEGPPLHKDDVNGIRHLYGPRPEPEPRPPTTTTPQPTAPPTVCPTGPPTVHPSERPTAGPTGPPSAGPTGPPTAGPSTATTVPLSPVDDACNVNIFDAIAEIGNQLYLFKDGKYWRFSEGRGSRPQGPFLIADKWPALPRKLDSVFEERLSKKLFFFSGRQVWVYTGASVLGPRRLDKLGLGADVAQVTGALRSGRGKMLLFSGRRLWRFDVKAQMVDPRSASEVDRMFPGVPLDTHDVFQYREKAYFCQDRFYWRVSSRSELNQVDQVGYVTYDILQCPED | – | – | degradation of LAP could not be confirmed
